Data taken from publication PMC4958592 (Molecular cell, 2016).

Target: methyltransferase domain of Mettl3 (MTD3, residues 357-580) (human, UniProt Q86U44 357-580)
Assay: SEC-MALS

Sequence of methyltransferase domain of Mettl3 (MTD3, residues 357-580) (Q86U44 357-580): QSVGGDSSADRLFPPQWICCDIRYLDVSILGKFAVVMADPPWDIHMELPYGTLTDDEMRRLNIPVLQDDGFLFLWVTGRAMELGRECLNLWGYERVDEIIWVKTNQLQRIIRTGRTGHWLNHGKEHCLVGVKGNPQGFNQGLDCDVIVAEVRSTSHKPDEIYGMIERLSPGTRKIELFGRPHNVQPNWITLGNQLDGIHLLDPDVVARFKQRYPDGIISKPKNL

B1: methyltransferase domain of Mettl14 (MTD14, residues 111-456) (domain or fragment, human, UniProt Q9HCE5 111-456, looked up)
chain: QSLNPHNDYCQHFVDTGHRPQNFIRDVGLADRFEEYPKLRELIRLKDELIAKSNTPPMYLQADIEAFDIRELTPKFDVILLEPPLEEYYRETGITANEKCWTWDDIMKLEIDEIAAPRSFIFLWCGSGEGLDLGRVCLRKWGYRRCEDICWIKTNKNNPGKTKTLDPKAVFQRTKEHCLMGIKGTVKRSTDGDFIHANVDIDLIITEEPEIGNIEKPVEIFHIIEHFCLGRRRLHLFGRDSTIRPGWLTVGPTLTNSNYNAETYASYFSAPNSYLTGCTEEIERLRPKSPPPKSKSDRGGGAPRGGGRGGTSAGRGRERNRSNFRGERGGFRGGRGGAHRGGFPPR
  stoichiometry N: 1
